Measurements from patent US20180086849A1 (Hoffmann-La Roche, published 2018).

How the values were obtained:
[1] = target: T1, hu-MCSP(D3 domain)-avi-his (human, UniProt Q6UVK1 1582-2224, biotinylated where used for selection or for coupling to the SA chip); experiment: SPR (ProteOn XPR36), IgG KD against parental M4-3/ML2
T1 construct: also called human MCSP(D3 domain)-avi-his; human MCSP D3
T1 sequence: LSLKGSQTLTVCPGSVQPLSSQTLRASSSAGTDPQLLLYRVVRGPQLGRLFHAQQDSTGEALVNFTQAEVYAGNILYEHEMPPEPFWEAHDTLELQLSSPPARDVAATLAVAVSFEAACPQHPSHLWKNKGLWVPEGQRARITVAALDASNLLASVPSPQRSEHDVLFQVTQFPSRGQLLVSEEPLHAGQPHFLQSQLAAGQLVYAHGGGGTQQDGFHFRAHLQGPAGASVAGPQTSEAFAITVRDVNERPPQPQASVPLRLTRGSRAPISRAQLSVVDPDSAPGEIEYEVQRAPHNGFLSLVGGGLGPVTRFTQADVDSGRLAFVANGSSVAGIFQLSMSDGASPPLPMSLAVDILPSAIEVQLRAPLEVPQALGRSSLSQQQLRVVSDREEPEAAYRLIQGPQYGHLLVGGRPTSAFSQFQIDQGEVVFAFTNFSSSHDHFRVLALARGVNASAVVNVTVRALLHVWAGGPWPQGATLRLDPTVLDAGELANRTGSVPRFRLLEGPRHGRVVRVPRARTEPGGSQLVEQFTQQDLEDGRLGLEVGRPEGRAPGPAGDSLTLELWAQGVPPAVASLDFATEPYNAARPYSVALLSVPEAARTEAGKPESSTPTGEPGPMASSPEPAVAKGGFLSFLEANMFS
Experimental: (§1) Briefly, carboxymethylated dextran biosensor chips (CM5, GE Healthcare) were activated with N-ethyl-N′-(3-dimethylaminopropyl)-carbodiimide hydrochloride (EDC) and N-hydroxysuccinimide (NHS) according to the supplier's instructions. Anti-human F(ab′)2 fragment specific capture antibody was diluted with 10 mM sodium acetate, pH 5.0 at 50 μg/ml before injection at a flow rate of 10 μl/minute to achieve approximately up to 10.000 response units (RU) of coupled capture antibody. Following the injection of the capture antibody, 1 M ethanolamine was injected to block unreacted groups. For kinetics measurements, Fabs from bacterial supernatant or purified Fabs are injected at a flow rate of 10 ul/minute for 300 s and a dissociation of 300 s for capture baseline stabilization. […] The surface of the sensorchip was regenerated by injection of glycine pH 1.5 for 30 s at 90 ul/min followed by injection of NaOH for 20 s at the same flow rate. Association rates (kon) and dissociation rates (koff) were calculated using a simple one-to-one Langmuir binding model (ProteOn XPR36 Evaluation Software or Scrubber software (BioLogic)) by simultaneously fitting the association and dissociation sensorgrams. The equilibrium dissociation constant (KD) was calculated as the ratio koff/kon. […] Since CDR1 and 2 of the light chain were randomized independent from CDR3, the obtained CDRs were combined during IgG conversion.
(§2) In the IgG format affinities were measured again to the human MCSP antigen (SEQ ID NO. 390), in addition also to the cynomolgus homologue (SEQ ID NO. 389). Method exactly as described for the Fab fragments, just purified IgG from mammalian production were used.

[2] = target: T2, cynomolgus MCSP D3 (cynomolgus, UniProt Q6UVK1 1582-2224 (human entry)); experiment: as above
T2 construct: also called cynomolgus homologue; not shown: C-terminal tag
T2 chain: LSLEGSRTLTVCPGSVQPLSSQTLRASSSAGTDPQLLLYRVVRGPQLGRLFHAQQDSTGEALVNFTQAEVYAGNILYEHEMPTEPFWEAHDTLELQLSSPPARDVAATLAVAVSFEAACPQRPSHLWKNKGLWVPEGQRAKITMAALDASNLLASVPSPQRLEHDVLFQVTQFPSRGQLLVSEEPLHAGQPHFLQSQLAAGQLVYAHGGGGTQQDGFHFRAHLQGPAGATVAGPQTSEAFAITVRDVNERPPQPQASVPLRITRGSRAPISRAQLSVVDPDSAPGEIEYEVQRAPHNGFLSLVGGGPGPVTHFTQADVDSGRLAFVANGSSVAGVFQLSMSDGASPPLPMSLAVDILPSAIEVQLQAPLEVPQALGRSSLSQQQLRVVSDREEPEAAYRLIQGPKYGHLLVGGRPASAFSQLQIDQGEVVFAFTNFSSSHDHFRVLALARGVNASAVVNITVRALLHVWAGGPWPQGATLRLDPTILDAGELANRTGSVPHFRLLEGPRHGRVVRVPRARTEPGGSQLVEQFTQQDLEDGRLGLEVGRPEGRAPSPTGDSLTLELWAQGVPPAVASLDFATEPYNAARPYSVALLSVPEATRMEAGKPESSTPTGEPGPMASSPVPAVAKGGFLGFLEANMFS
Experimental: as §1, §2

[3] = target: T1, hu-MCSP(D3 domain)-avi-his; experiment: SPR (ProteOn XPR36), IgG captured, antigen as analyte
Experimental: Briefly, carboxymethylated dextran biosensor chips (CM5, GE Healthcare) were activated with N-ethyl-N′-(3-dimethylaminopropyl)-carbodiimide hydrochloride (EDC) and N-hydroxysuccinimide (NHS) according to the supplier's instructions. Anti-human F(ab′)2 fragment specific capture antibody was diluted with 10 mM sodium acetate, pH 5.0 at 50 μg/ml before injection at a flow rate of 10 μl/minute to achieve approximately up to 10.000 response units (RU) of coupled capture antibody. Following the injection of the capture antibody, 1 M ethanolamine was injected to block unreacted groups. For kinetics measurements, Fabs from bacterial supernatant or purified Fabs are injected at a flow rate of 10 ul/minute for 300 s and a dissociation of 300 s for capture baseline stabilization. […] Association rates (kon) and dissociation rates (koff) were calculated using a simple one-to-one Langmuir binding model (ProteOn XPR36 Evaluation Software or Scrubber software (BioLogic)) by simultaneously fitting the association and dissociation sensorgrams. The equilibrium dissociation constant (KD) was calculated as the ratio koff/kon. […]
In the IgG format affinities were measured again to the human MCSP antigen (SEQ ID NO. 390), in addition also to the cynomolgus homologue (SEQ ID NO. 389). […]

B1: M4-3(A7)/ML2(C5) (IgG) (antibody, V domains shown)
VH: QVQLQESGPGLVKPSQTLSLTCTVSGGSITDGYYWNWIRQHPGKGLEWIGYITFDGRNNYNPSLKSRVTISRDTSKNQFSLKLSSVTAADTAVYYCADFDYWGQGTLVTVSS
VL: DIQMTQSPSSLSASVGDRVTITCRASRGIREYLNWYQQKPGKAPKLLIYYTGSLHSGVPSRFSGSGSGTDFTLTISSLQPEDFATYYCQQYSELPWTFGQGTKVEIK
notes: Human IgG1 format
Comparative binding affinity - Fold increase over parent [1]: 28.6 fold
Comparative binding affinity - Fold increase over parent [2]: 10 fold
Kd [3]: 0.07 nM
